The chains are these.
B3: NtcA from Synechococcus elongatus (strain PCC7942) with N-terminal His6 tag (natural protein)
chain: MLANENSLLTMFRELGSGKLPLQIEQFERGKTIFFPGDPAERVYLLVKGAVKLSRVYESGEEITVALLRENSVFGVLSLLTGQRSDRFYHAVAFTPVQLFSVPIEFMQKALIERPELANVMLQGLSSRILQTEMMIETLAHRDMGSRLVSFLLILCRDFGIPSPDGITIDLKLSHQAIAEAIGSTRVTVTRLLGDLRESKLIAIHKKRITVFNPVALSQQFS

For one data set, the target named is T1, NtcA (Synechococcus elongatus PCC7942, UniProt P29283 1-222).
T1 sequence: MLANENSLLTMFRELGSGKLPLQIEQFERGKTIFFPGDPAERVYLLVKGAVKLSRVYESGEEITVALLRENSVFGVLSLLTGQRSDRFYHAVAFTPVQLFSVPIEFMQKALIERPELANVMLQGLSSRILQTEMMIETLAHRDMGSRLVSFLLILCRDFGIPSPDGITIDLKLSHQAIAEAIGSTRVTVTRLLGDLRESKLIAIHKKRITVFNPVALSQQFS
Put plainly: X-ray crystallography.

Data set [1] has as its target B3. The data set can be described thus: crystal structure.
The data set “crystal structure” deals with the molecule itself. The data set can be described thus: crystal structure.

B1: nicked symmetric glnA half-site NtcA box (NtcA-DNA crystal) (dsDNA)
DNA 1: CATTTTTATGTATC
DNA 2: AGCTGATACATAAAAAT
As to B1, in the data set with NtcA, the binding result is reported as “binds”.

B2: PipX from Synechococcus elongatus (strain PCC7942) with N-terminal His6 tag (natural protein)
chain: MASENYLNHPTFGLLYQICSFGDSKELFATLYAQRLFFLVAFDARGTRFEPIGRNEARMLVDNRLRQLRRDASLQEYNQLQQVFKQTFL
Regarding B2, the binding result in data set [1] is recorded as “binds”. For B3, the binding result in “crystal structure” is recorded as “binds”.

Source of the values: paper doi:10.1101/2024.08.29.607757 (bioRxiv, 2024).
